Values of other authors as cited in patent US5744316A, “Isolated, tyrosinase derived peptides and uses thereof” (Ludwig Institute for Cancer Research, priority 1996, dated 1998).
Where no end group is shown, it is not given here.

Experiments:
HLA-B*4402 molecules = HLA-B*4402 molecules (Homo sapiens, UniProt P01889, A223V/A65T/A93T/A95T/D201E/D98Y/E176V/E187L/E204Q/E69K/G107R/H137Y/K202T/L105A/L119I/N104T/N87E/Q56L/Q94N/R106L/R155S/R180D/S101N/S121R/S35A/S48T/T118I/V36M/W191S/Y140D/Y91S); conditions: Coulie et al. 1995
HLA-B44 = conditions: Burrows et al. 1990

For EEKLIVVLF [SEQ ID NO: 11], the “binding to HLA-B*4402 molecules” value (HLA-B*4402 molecules) is given as “binds”.
In the case of EENLLDFVRF [SEQ ID NO: 9], the “binding by HLA-B44” value (HLA-B44) is given as “bound”.
